Test results published in publication PMC10449786.

Target: human citrullinated fibrinogen (hCitFbg) (human) (UniProt P02671)
Test: ELISA; Fbg or citrullinated Fbg coated (0.8 μg/mL in PBS, overnight 4 °C); recombinant SAA 10–2000 ng/mL added, 1 h at 37 °C; detected with anti-hSAA1; apparent Kd

apparent Kd relative to hSAA1-hFbg: 0.5 fold
B1: recombinant human serum amyloid A1 (hSAA1) (natural protein)
chain: RSFFSFLGEAFDGARDMWRAYSDMREANYIGSDKYFHARGNYDAAKRGPGGAWAAEVITDARENIQRFFGHGAEDSLADQAANEWGRSGKDPNHFRPAGLPEKY
